Results published in patent US20210230280A1.

Biological target: FGFR4 (human) (UniProt P22455)
Assay: ELISA; also printed 0.001 ug/mL

Chain of FGFR4 (human) (P22455 22-369): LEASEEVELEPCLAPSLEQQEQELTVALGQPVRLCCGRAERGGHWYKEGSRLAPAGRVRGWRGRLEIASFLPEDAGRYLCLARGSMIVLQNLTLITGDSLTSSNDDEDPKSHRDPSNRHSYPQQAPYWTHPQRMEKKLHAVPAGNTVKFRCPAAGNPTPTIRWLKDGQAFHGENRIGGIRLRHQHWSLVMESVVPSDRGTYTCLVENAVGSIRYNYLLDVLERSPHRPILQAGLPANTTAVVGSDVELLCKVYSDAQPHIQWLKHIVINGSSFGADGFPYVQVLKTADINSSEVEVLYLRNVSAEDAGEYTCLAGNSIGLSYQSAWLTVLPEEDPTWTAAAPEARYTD

Kd: 70 pM
Substance: ab41948
